Laboratory results published in publication PMC10164552, “PBRM1 bromodomains associate with RNA to facilitate chromatin association”.

Tests used:
PBRM1 BD2 SKY_AAA = PBRM1 BD2 SKY_AAA (UniProt Q86U86 178-291, S275A;K277A;Y281A); assay: NMR titration (1H-15N HSQC); NMR: 0.1 mM 15N-BD, 50 mM K phosphate pH 7.0, 50 mM KCl, 2 mM DTT, 2 mM EDTA, 7% D2O, 25 C; EMSA: 50 mM K phosphate pH 7.0, 10 mM KCl, 2 mM DTT, 2 mM EDTA, 5% sucrose, on ice 1 h, gel at 4 C; details: protein: recombinant; tags: His tag, TEV-cleaved; hairpin, UUCG loop
PBRM1 BD4 [1] = molecular target: T1, PBRM1 BD4 (UniProt Q86U86 496-637); assay: as above; details: protein: recombinant, tags: His tag, TEV-cleaved
PBRM1 BD2 [2] = molecular target: T2, PBRM1 BD2 (UniProt Q86U86 178-291); assay: as above; details: protein: recombinant, tags: His tag, TEV-cleaved
PBRM1 BD4 KRK_AAA = PBRM1 BD4 KRK_AAA (UniProt Q86U86 496-637, K511A;R512A;K513A); assay: as above; details: protein: recombinant; tags: His tag, TEV-cleaved; hairpin, UUCG loop
PBRM1 BD4 [3] = molecular target: T1, PBRM1 BD4; assay: NMR titration (1H-15N HSQC); Kd only in figure, stated similar to other dsRNAs; NMR: 0.1 mM 15N-BD, 50 mM K phosphate pH 7.0, 50 mM KCl, 2 mM DTT, 2 mM EDTA, 7% D2O, 25 C; EMSA: 50 mM K phosphate pH 7.0, 10 mM KCl, 2 mM DTT, 2 mM EDTA, 5% sucrose, on ice 1 h, gel at 4 C; details: protein: recombinant, tags: His tag, TEV-cleaved
PBRM1 BD2 [4] = molecular target: T2, PBRM1 BD2; assay: as above; details: protein: recombinant, tags: His tag, TEV-cleaved, hairpin

T1 sequence (Q86U86 496-637): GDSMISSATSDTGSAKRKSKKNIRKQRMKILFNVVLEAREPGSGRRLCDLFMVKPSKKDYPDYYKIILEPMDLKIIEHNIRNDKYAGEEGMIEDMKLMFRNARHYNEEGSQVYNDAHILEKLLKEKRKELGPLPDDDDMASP
T2 sequence (Q86U86 178-291): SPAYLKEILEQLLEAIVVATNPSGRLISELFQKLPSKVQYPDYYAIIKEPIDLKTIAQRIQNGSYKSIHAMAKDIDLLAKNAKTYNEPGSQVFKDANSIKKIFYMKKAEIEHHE
Sequence of PBRM1 BD2 SKY_AAA (Q86U86 178-291 S275A/K277A/Y281A): as the sequence (Q86U86 178-291) above, with S98A, K100A, Y104A counted along it
Sequence of PBRM1 BD4 KRK_AAA (Q86U86 496-637 K511A/R512A/K513A): as the sequence (Q86U86 496-637) above, with K16A, R17A, K18A counted along it

## GCGUAGACAGCUGUUCGCAGCUGUCUACGC (structured_RNA) [dsRNAI stem-loop 30 nt]
PBRM1 BD2 SKY_AAA
  Kd: 200 ± 70 µM
PBRM1 BD4 [1]; hairpin, UUCG loop
  Kd: 120 ± 20 µM
PBRM1 BD2 [2]; hairpin, UUCG loop
  Kd: 25 ± 8 µM
PBRM1 BD4 KRK_AAA
  Kd: 1020 ± 40 µM

## GGCAUCGUGCAUCAGAAUGGCACGAUGCC (structured_RNA) [dsRNAIII stem-loop]
PBRM1 BD4 [3]; hairpin
  binding result: binds
PBRM1 BD2 [4]
  binding result: binds

B1: dsDNA 11 bp (dsDNA)
DNA 1: CGTAGACAGCT
DNA 2: AGCTGTCTACG
PBRM1 BD4 [1]; blunt
  Kd: 500 ± 270 µM
PBRM1 BD2 [2]; blunt
  Kd: 910 ± 380 µM

## CGTAGACAGCT (ssDNA) [ssDNA]
PBRM1 BD4 [1]
  Kd: 2970 ± 140 µM
PBRM1 BD2 [2]
  Kd: 130 ± 30 µM

## UUUUUUUUUUUUU (ssRNA) [ssRNAI poly-U 13 nt]
PBRM1 BD4 [1]
  Kd: 320 ± 140 µM
PBRM1 BD2 [2]
  Kd: 350 ± 80 µM

## GGCAUCGUGCUUCGGCACGAUGCC (structured_RNA) [dsRNAII stem-loop]
PBRM1 BD4 [3]; hairpin, UUCG loop
  binding result: binds
PBRM1 BD2 [4]; UUCG loop
  binding result: binds

B2: dsRNAIV (no loop) (dsRNA)
RNA 1: GGCAUCGUGC
RNA 2: GCACGAUGCC
PBRM1 BD4 [3]; blunt
  binding result: binds
